{
  "source": "paper PMC12624782",
  "about": "(The Journal of Biological Chemistry, 2025)",
  "key": {"TaGST-10 [1]": {"biological_target": "T1, TaGST-10 (Triticum aestivum, UniProt A0A3B5XZG4)", "T1 sequence (A0A3B5XZG4 1-234)": "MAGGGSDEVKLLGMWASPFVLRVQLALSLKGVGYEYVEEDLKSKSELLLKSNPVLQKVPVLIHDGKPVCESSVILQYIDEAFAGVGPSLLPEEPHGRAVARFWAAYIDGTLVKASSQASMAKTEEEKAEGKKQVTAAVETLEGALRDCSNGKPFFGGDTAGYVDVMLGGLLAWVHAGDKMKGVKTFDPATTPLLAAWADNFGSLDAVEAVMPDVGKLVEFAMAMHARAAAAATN", "test": "LC-MS/MS of DON-13-GSH formation, […] DON, apparent specific activity", "type": "biochemical", "design": "gene LOC123049460; N-His6-SUMO-TaGST-10, IMAC and size-exclusion purified"}, "TaGST-10 [2]": {"biological_target": "T1, TaGST-10", "test": "co-crystal structure, […] Å", "type": "binding", "design": "gene LOC123049460; TaGST-10 after TEV removal of the N-His6-MBP tag; dimer in the asymmetric unit"}, "purified protein [3]": {"substrate": "S=C=NCCc1ccccc1", "test": "purified protein", "type": "biochemical, Triticum aestivum", "details": "GSH; pH 6.5; 20.0 °C"}, "purified protein [4]": {"substrate": "N[C@@H](CCC(=O)N[C@@H](CS)C(=O)NCC(=O)O)C(=O)O", "test": "purified protein", "type": "biochemical, Triticum aestivum", "details": "G-site in the N-terminal domain; pH 6.5; 20.0 °C"}, "purified protein [5]": {"substrate": "C=C(CC)C(=O)c1ccc(OCC(=O)O)c(Cl)c1Cl", "test": "purified protein", "details": "GSH; pH 6.5; 20.0 °C"}},
  "data": [
    {"molecule": "CC1=C[C@H]2O[C@@H]3[C@H](O)C[C@](C)([C@@]2(CO)[C@H](O)C1=O)[C@]31CO1", "note": "[DON, deoxynivalenol]", "values": [
      {"measurement": "LC-MS/MS of DON-13-GSH formation, 5 mM DON, apparent specific activity", "setting": "TaGST-10 [1]", "value": "6.3 10^−5 ± 0.4 10^−5"}
    ]},
    {"molecule": "CC1=C[C@H]2O[C@@H]3[C@H](O)C[C@](C)([C@]24CO[C@@]1(O)[C@H]4O)[C@]3(O)CSC[C@H](NC(=O)CC[C@H](N)C(=O)O)C(=O)NCC(=O)O", "note": "(mixture of isomers) [DON-13-GSH]", "values": [
      {"measurement": "co-crystal structure, 2.3 Å", "setting": "TaGST-10 [2]", "value": "TaGST-10 crystallized as a dimer in the asymmetric unit and contained a molecule of DON-13-GSH in each active site."}
    ]},
    {"molecule": "TaGST-10 (Triticum aestivum) (protein, N-His6-MBP-TaGST-10 (full-length fusion)) MAGGGSDEVKLLGMWASPFVLRVQLALSLKGVGYEYVEEDLKSKSELLLKSNPVLQKVPVLIHDGKPVCESSVILQYIDEAFAGVGPSLLPEEPHGRAVARFWAAYIDGTLVKASSQASMAKTEEEKAEGKKQVTAAVETLEGALRDCSNGKPFFGGDTAGYVDVMLGGLLAWVHAGDKMKGVKTFDPATTPLLAAWADNFGSLDAVEAVMPDVGKLVEFAMAMHARAAAAATN", "values": [
      {"measurement": "K0.5", "setting": "purified protein [3]", "value": "0.041 ± 0.004", "unit": "mM"},
      {"measurement": "kcat", "setting": "purified protein [3]", "value": 2, "unit": "s⁻¹"},
      {"measurement": "kcat/Km", "setting": "purified protein [3]", "value": 47000, "unit": "M⁻¹ s⁻¹"},
      {"measurement": "K0.5", "setting": "purified protein [4]", "value": "0.46 ± 0.01", "unit": "mM"},
      {"measurement": "K0.5", "setting": "purified protein [5]", "value": "0.023 ± 0.003", "unit": "mM"},
      {"measurement": "kcat", "setting": "purified protein [5]", "value": 0.13, "unit": "s⁻¹"},
      {"measurement": "kcat/Km", "setting": "purified protein [5]", "value": 5500, "unit": "M⁻¹ s⁻¹"}
    ]}
  ]
}
